# Patent US20160237157A1 (published 2016)
# T1: human FGFR4 (soluble, Part B: SPR and FGFR4 ELISA) (human, UniProt P22455 22-369)
# T1 construct: Injected over immobilized IgG in SPR (0.48-1000 nM) and immobilized in the FGFR4 ELISA
# T1 sequence: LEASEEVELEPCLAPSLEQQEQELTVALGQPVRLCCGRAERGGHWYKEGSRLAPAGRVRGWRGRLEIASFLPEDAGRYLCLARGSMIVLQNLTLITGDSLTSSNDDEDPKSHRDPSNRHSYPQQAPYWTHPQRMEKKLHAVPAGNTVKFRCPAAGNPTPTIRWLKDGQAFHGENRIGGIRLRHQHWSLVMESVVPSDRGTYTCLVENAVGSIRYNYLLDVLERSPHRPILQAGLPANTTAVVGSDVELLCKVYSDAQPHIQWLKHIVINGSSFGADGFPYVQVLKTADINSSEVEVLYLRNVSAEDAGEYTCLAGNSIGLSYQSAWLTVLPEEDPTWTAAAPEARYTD
# B1: chimeric LD1 (chLD1) (antibody, V domains shown)
# VH: EVQLQQPGAVLVRPGTSVKLSCKASGYTFTNHWMNWVKQRPGQGLEWIGMIHPSDSETTLDQKFKDKATLTVDKSSSTAYMQLNRPTSEDSAVYYCTRGDISLFDYWGQGTTVTVSS
# VL: DIQMTQTTSSLSASLGDRVTITCRTSQDISNFLNWYQQKPDGTFKILISYTSRLHSGVPSRFSGSGSGTDYSLTISTLEQEDFATYFCQQGNALPYTFGGGTKLEIE
# B2: hLD1.vA (antibody, V domains shown)
# VH: EVQLVESGGGLVQPGGSLRLSCAASGYTFTNHWMNWVRQAPGKGLEWVGMIHPSDSETTLDQKFKDRFTISADTSKNTAYLQMNSLRAEDTAVYYCTRGDISLFDYWGQGTLVTVSS
# VL: DIQMTQSPSSLSASVGDRVTITCRTSQDISNFLNWYQQKPGKAPKLLIYYTSRLHSGVPSRFSGSGSGTDFTLTISSLQPEDFATYYCQQGNALPYTFGQGTKVEIKR
# How the values were obtained:
# [1] = biological target: human FGFR4 expressed at the cell surface (human, UniProt P22455 22-802); experiment: cell-based or functional assay
# [2] = biological target: T1, human FGFR4 (soluble, Part B: SPR and …); experiment: surface plasmon resonance, compared with chLD1
Binder,"CYP7α1 expression in HEP3B cells without added FGF19, fold increase [1]","CYP7α1 expression in HUH7 cells in the absence of FGF19, fold increase [1]","CYP7α1 expression in HUH7 cells in the presence of FGF19, fold increase [1]",fold decrease of affinity against chLD1 [2]
B1,2 fold,3.5 fold,2.9 fold,
B2,,,,~5 fold
